Reference: the DeepSol protein solubility set

test: soluble on expression in E. coli; label from the status in PepcDB or PDB records

Row | Sequence | soluble on expression in E. coli
1 | MGSDKIHHHHHHMTKSKNNPGRGNTIRESNTMKVMEEIREKIRKAIKEGVSLREIEEIILQEAMMEEREAYLEVEDDHKNGTYFRYLGTGDGVLRLRVPRTRKGGFRPKILPEKYERTSPDYEDFLQQLVLSGMTPSQVKAVLAAKGIPYSEIVMNRVAERISNKLKEYKSRELPHDLLALYIDVKIVKVRISESIMERAIYIAIGVDLEGNKFVLDYEVRDREDLDGWKSFLSGLVSRGVSRVDVIVSDDFSGLDRVVSTLFPSSQHQLCITHMVRNLMRVLPDKEKEELMIRVRDLKSSRNVEEGRKAILSLSQLVQPFSPARAKRLLDAADKYCSFLNFPREIRHYLYTNNTSESFNLTLARFEEELGGYFPSLRSLEVYLYVSIHESNSRWKFRPMSVIRHYSYHLKQLHASRFQVSLDEDF | not soluble
2 | MVDVIALGEPLIQFNSFNPGPLRFVNYFEKHVAGSELNFCIAVVRNHLSCSLIARVGNDEFGKNIIEYSRAQGIDTSHIKVDNESFTGIYFIQRGYPIPMKSELVYYRKGSAGSRLSPEDINENYVRNSRLVHSTGITLAISDNAKEAVIKAFELAKSRSLDTNIRPKLWSSLEKAKETILSILKKYDIEVLITDPDDTKILLDVTDPDEAYRKYKELGVKVLLYKLGSKGAIAYKDNVKAFKDAYKVPVEDPTGAGDAMAGTFVSLYLQGKDIEYSLAHGIAASTLVITVRGDNELTPTLEDAERFLNEFKT | soluble
3 | MTIYEQHFIFSDRIVPIRVRENKYARRLILRIDARGREICVTTPPAINLYSIQGFIAKHQSWIEARLARVQIAHANSYLKEGTKIPLLGIPHTIQRKEGRGITEIVAGDVRQEPKIVVYGQLEYLPRRIADVLKKQAALIITPLVKCYARKVERKVKSICYKDTKSRWGSCSIHGNLSFSWRLVMAPQEVIEYVVAHEVAHLIEMNHGPKFWALCEKLCPKSEAYRTWLKENGHMLQAVNFHSYRLEI | not soluble
4 | MGSDKIHHHHHHMFCKVMKIGISCHHTYGGSGAVATELGKALAMKGHTVHFFSQAAPFRLGLYSRNIYCHEIEAMNYPLFETPYHSLALASKIAEVAFYEKLDVVHAHYAIPHAISAMLARQMLEEKCPAAECFRIVTTLHGTDITIVGADRSMSDAVRLAINKSDGVTAVSGYLRDETIRMFTPRKKIEVIHNFVDTAVFKRLPGRRDLLGLDGGKVVIHISNFRPVKRIMDVLAVFESIRREIPATLLLVGDGPDRSEAETWVRNYGIGDRVRFLGKLDDIVPLLSIADLMLMPSNVESFGLAALEAMACGVPVVVTDAGGFPEFVRQGVDGFRHPHGDIEGMSRSALSILRDDEVWQRFSGAAANQAGRFKTALKVKEYEAFYRRLIDEARERKAQ | not soluble
5 | MTVYNRTKQKTEDLVTEGAQAADTPRLAAKSADIVITMLADDDSVSTVTFGEDGLLEGLAENGIHISMSTISVEFSEKLAAAHAEKGQFFLAAPVLGRPDAAAKAALRIITAGPAEAKQAAKPLLDSLSQQIFDVGEESKTANAAKISINFLLVSMLEALSESFLMMEKYGLEQKQFLEIASALFGSPVYQNYGTIMAEQKFEPAGFKMSLGLKDTNLALAAAKRVSANLPLAELAKSHFESGIEKGFGDLDWAALIKCIK | not soluble
6 | TTPIVHLKGDANTLKCLRYRFKKHCTLYTAVSSTWHWTGHNVKHKSAIVTLTYDSEWQRDQFLSQVKIPKTITVSTGFMSIGGGTGGGSGGGS | soluble
7 | MLRKQVYLTPEEEAKLKRLARATGRTEAEILRLALDLLPEEEAPLLLALAEEGLLEVPERAVTPARMEEAYRRYLDRVAGRGLGLSKAVLADREGR | soluble
8 | MGHHHHHHSHCDSDCLWVGLAGPQILPPCRSIVRTLHQHKLGRASWPSVQQGLQQSFLHTLDSYRILQKAAPFDRRATSLAWHPTHPSTVAVGSKGGDIMLWNFGIKDKPTFIKGIGAGGSITGLKFNPLNTNQFYASSMEGTTRLQDFKGNILRVFASSDTINIWFCSLDVSASSRMVVTGDNVGNVILLNMDGKELWNLRMHKKKVTHVALNPCCDWFLATASVDQTVKIWDLRQVRGKASFLYSLPHRHPVNAACFSPDGARLLTTDQKSEIRVYSASQWDCPLGLIPHPHRHFQHLTPIKAAWHPRYNLIVVGRYPDPNFKSCTPYELRTIDVFDGNSGKMMCQLYDPESSGISSLNEFNPMGDTLASAMGYHILIWSQEEARTRK | not soluble
9 | MVQKLSRPSPDFLKGLKSILQGDHPSLKQLEQDINIFYMNQRQSQSMLEERKLYVALVRKYLKSEGVTKQLASQGIKLRGLSVFGSFPTHCASKDSDLDLCVCATATGNKKQLPVIILQAIFRDMMYSKEGQNIFGENVVSGISFVQTAKVPIIRFKINDVPVDLSATFDDNPRTSLAAKYINAYCQLDDRFKILVMFLKKWMKSEGRAEDHLRIYPNSYSIILLLIHVLQWYDILPNLHQTHSDLFHRGNFKLSDLAELRHEFKFPLDENTISMHRKRPSNDLTVVQLLYLFACQYSNHVVLLNYRFNMRNGEIEALSQKDQDYQITILDAYDVRNPGRSARNALDLVKTLEALKSLLVQPHEGMFKTVMEITRNRTYERVVPPPQVLYQDYDMQFGADPYNMPLVGSVEYQQWLEQVAMHHQIQMMQGQMMQQQIVFTAPEMYYYSQQQQQPHPIFGIQQSSQFF | not soluble
10 | MNENGATPVAAARRHRPLPAERATSNSNETGLLINVIRSLTSSVSEDQREVEKSRLEKGYKESGALIDRLVKNHQQDVEKCLVSFRDVSSKISNCRERIHNVRNALHTVKSLLELRRDDLKKLWHENAQQKSVCEIMAKLEELREAPSKIENLISKEQYQQAADTVTESRELINGRLSRVEGLSHLSAEIERFTKILIDKINDTLVNMLVVEPFEKHLLHIVRTIPEHRINQNAYCHSLSTKSRSGSGSVSSFSDVSAKSRIVSSVEALSTLFRTVEERHWDVDRLMMLGKNMIDKMIVNTVQVMKIGANIDESNEGDTTHLKQLMQLLSAQFDSASQQHAEFGVLVEKQLGRKDVVTSFWRSAQSAIEVVVSEHLDINPLLEKQNVLGTASRKQLFRFENTACATPNANSSSHRTKAVICKPSAYNIKVIFPILSRLMETTEKNINDSPCELRRFMHSFVMEVFVERVKGELASRIEGALRGGEAVRVSTNKKILPSCEKVLNLCKEVQDLIVSIDLYADRFAALWLLVLTDYFKNMTDVYDRMTPKNPDPSLPNSEALPTRRQKISAAWTADDDISRLLMSLPNWHAASISPMTPAVESELDVGERNKRESEILIGNLGTQAQNSLSESDLITDMNDIKMFASLHESLRWFSDEIRELVHSLPANVKMMLDTCMVQVRLKDGQMIDNNSVPSAIEDCVRRLESIADSCLLLLHIEIRVHCFFHLAPLAKYRNTSSHNEVDPEVVALGKDLHQFHDNLKDVLSPAKLSYVFDGLGHLCASLFIHYSQFMPRLTEAAKKRVCRNVWGVQQRLSRITNRRESDLDRARAFFDLLLDNTPDGILAIVPEKRSQFTATELNYLLALSVRSDKTLASQPGALEKRQMVLNSILNQKK | not soluble
11 | MKVTLSVLKADIGSVGGHTLPSRKVLAKVEEVVREEVGRLLLDAYVFHIGDDIVLLLSHTRGVRNQEVHALAWKAFREGTEVAKAEGLYGAGQDLLKDAFTGNLHGLGPQVAEMEFTERPAEPFMVLAADKTEPGAFNLPLYLAFADPMYSSGLLLSPELRPGFRFRIMDLAQTERDSYIELDAPERLYDIATLLRDSHRFAIESIWSRKHGEQAAVVSTTRLRNIAGRYVGKDDPVAIVRTQKIFPATEEFGPVFALAPYVAGDTRGSHHMPLMPVRANTPASTFFCVPMVCGLAFSLREGRLSEPVDLFADPVWEAVRAKVVEKAQEMRRQGFYGPAMLPMEELEYTGIAERLKALEREFS | soluble
12 | MSLSKKFYPNSQAFLLEKKDLKTIDRKINANKGNFGHIYIVANASAGTLAGLGALNFGAGLVSLVAQKSFSPLLMLKEKIENNASAIALGMGLENLDFLKDEILQNTPLILDANCFLSEALLWYLNRKDVVITPHPKEFIKLYKMCFDENLDIETLQKNRFFYARKFSQNYDCVLVLKGANPIIVQKEKLFVVNLGNQALAKGGSGDVLSGMIAAHLGFGFSALEAAKNATLAHGLVAKKYKFNKNSFDALKLIKGLKCLEGHHHHHH | not soluble
13 | MSGASSITATEPYRDVQIRPAVAPDVARVAAIDEAATGEAKPRYWQSLFENFSQARAGCRAFLIAELKGEVVGFICGEVRDFEFGAESCGWVFALTVDPAIRVNSIGTQLFEEICQIFTQAGVRKVRTMIEHDNQLVMAFFRSQGLMVGRFIGMEKNLD | soluble
14 | TMAGRSMQAARCPTDELSLSNCAVVSEKDYQSGQHVIVRTSPNHKYIFTLRTHPSVVPGSVAFSLPQRKWAGLSIGQEIEVALYSFDKAKQCIGTMTIEIDFLQKKNIDSNPYDTDKMAAEFIQQFNNQAFSVGQQLVFSFNDKLFGLLVKDIEAMDPSILKGEPASGKRQKIEVGLVVGNSQVAFEKAENSSLNLIGKAKTKE | soluble
15 | MMQALTYYRDLAANTMPGSNDIMEVKDAFMNGTAPMAIYSTYILPAVIKEGDPKNVGFVVPTEKNSAVYGMLTSLTITAGQKTEETEAAEKFVTFMEQADNIADWVMMSPGAALPVNKAVVTTSTWKDNDVIKALGELPNQLIGELPNIQVFGAVGDKKFTRMGDVTGSGVVSSMVHNVTVGKADLPGTLQTSQKKLDELIEQH | not soluble
16 | MKHHHHHHPMGHMQTLIFLDLEATGLPSSRPEVTELCLLAVHRRALENTSISQGHPPPVPRPPRVVDKLSLCIAPGKACSPGASEITGLSKAELEVQGRQRFDDNLAILLRAFLQRQPQPCCLVAHNGDRYDFPLLQTELARLSTPSPLDGTFCVDSIAALKALEQASSPSGNGSRKSYSLGSIYTRLYWQAPTDSHTAEGDVLTLLSICQWKPQALLQWVDEHARPFSTVKPMYGTPATTGTTNLR | soluble
17 | MLNHIVMWKIKEDVEDKEKVKLGIKNGLEGLFGKIEELREIRVERFMESTSTHDVALFVKVDNEDTLKKYATNPLHVEIIKNYIKPFVYDRVCIDFFELEHHHHHH | not soluble
18 | MQDKYGVNHDHYCYESSDVLINLLNIRDPDELTQAEADFNLIRYSEYCSDLDELEDFDSNHFLNLHWVLFQDIYEWAGTIRDVDISKANTRFCTCSRVEPELNKAISRIPLIRFCRNKHELVALVADIFSDLNVVHPFREGNGRTTRFFFEELLHVAGYRIEWPVITKEEWVDANIHGYFGQLHKLEVIFDAAIIESLEHHHHHH | not soluble
19 | MGSDKIHHHHHHLKEAILSPRFYTTDFKAIDRLEIDRNGLRDEFDWIRDEFAYDYNRTHFRRTDEFLQDFDDMPERDSFIDFLERSCTAEFSGCLLYAEMVKHLHDPTLRAIFKYMSRDEGRHAGFLNRTMADLNVALDLTVLQKRKKYTYFQPKFIFYSVYLSEKIGYSRYITIYRHLERNPQYCIHPIFKWFEQWCNDEYRHGEFFALLMRSQPEMLEGVNRRWIRFFLLAVYATMYLNDARRSNFYAALGLDWRDYDQTVIRLCNDIATQVYPETMNLDDPRFFAYMDKLVEYDRALRALESRKDPIAMAHSTRLKAAIALRLLAIYRLPTRKTTEAIRWKGLPGFPNYPGPNRPQRVVAAD | not soluble
